Patent US20190282673A1, “STAPHTAME ACTIVITY ON BIOFILMS” (priority 2016, published 2019)

Key:
S. lugdunensis = experiment: P128 MIC in CAMHB and serum; format: cell-based
[1] = system: S. aureus small colony variants and wild type; experiment: CFU drop assay on small colony variants; format: cell-based, Staphylococcus aureus
Procedure: Bacterial cultures were grown in LB medium at 37° C. until OD600 reached 1.0 and then diluted in LB to obtain 10^7 CFU. 100 μL of cells (10^7 CFU) in LB were treated with 100 μL of P128 (in saline) and incubated at 37° C. for 1 h, 200 rpm, cell controls without proteins were maintained. Following incubation, the volume was made up to 1 mL with LB broth, serially log diluted in LB broth and plated on LB agar. Incubated at 37° C. for 16-18 h to enumerate residual CFU and determine cell killing.

[2] = system: S. aureus small colony variants (hemB and menD mutants); experiment: Lawn inhibition assay on small colony variants; format: cell-based, Staphylococcus aureus
Procedure: Two S. aureus small colony variants viz., hemB mutant and menD mutants were characterized for SCV phenotype and auxotrophy for hemin and menadione. Both the isolates were revived on LB agar with and without Erythromycin (5 μg/mL) and Blood agar medium and incubated at 37° C. for 48 hr.
P128 was tested on both the mutants by lawn inhibition assay and the SCV's were susceptible to P128.

S. aureus BK1 biofilms = experiment: Scanning electron microscopy of treated biofilms in microtitre plates; format: cell-based, Staphylococcus aureus; settings: Gentamycin 50 μg/mL; P128 12.5 μg/mL (lowest concentration tested)
Procedure: MRSA strain BK1 or MW2 was used for studying biofilm eradication activity of P128 by SEM. For this, biofilms formed in microtitre plates or on the surface of catheters were treated with increasing concentrations of P128 or antibiotics and subjected to SEM. S. aureus BK1 or MW2 was revived on blood agar plates and the culture was grown overnight in TSB supplemented with 20% glucose. The overnight-grown culture was diluted 1:50 in TSB with 2% glucose to achieve OD600=˜0.1. 200 μL of the diluted culture was aliquoted into each well of the 96 well plate and incubated at 37° C. under static conditions for 18 h. After incubation the contents were aspirated, washed twice with 200 μL of PBS, and 100 μL of media+100 μL of drug were added to each well and incubated again at 37° C. for 18 h. The contents were aspirated, washed with 200 μL of PBS and allowed to dry at 37° C. for 15 min. The individual wells were cut out and biofilms visualized by SEM.

B1: P128: anti-staphylococcal chimeric protein: phage tail associated muralytic enzyme (TAME) cell wall-degrading region plus staphylococcus-specific binding region; SEQ ID NO: 1 (protein)
chain: MSLDSLKKYNGKLPKHDPSFVQPGNRHYKYQCTWYAYNRRGQLGIPVPLWGDAADWIGGAKGAGYGVGRTPKQGACVIWQRGVQGGSPQYGHVAFVEKVLDGGKKIFISEHNYATPNGYGTRTIDMSSAIGKNAQFIYDKKLETPNTGWKTNKYGTLYKSESASFTPNTDIITRTTGPFRSMPQSGVLKAGQTIHYDEVMKQDGHVWVGYTGNSGQRIYLPVRTWNKSTNTLGVLWGTIK
modifications: P128 chimera
Fold reduction in serum MIC (S. lugdunensis; S. lugdunensis B9476): 8 fold | MIC of P128 in CAMHB (S. lugdunensis; S. lugdunensis B9476): 4 μg/ml and (0.14) μM | MIC of P128 in Serum (S. lugdunensis; S. lugdunensis B9476): 0.5 μg/ml and (0.017) μM | Fold reduction in serum MIC (S. lugdunensis; S. lugdunensis B9510): 32 fold | MIC of P128 in CAMHB (S. lugdunensis; S. lugdunensis B9510): 16 μg/ml and (0.58) μM | MIC of P128 in Serum (S. lugdunensis; S. lugdunensis B9510): 0.5 μg/ml and (0.017) μM | 24 h P128 MIC for serum time-kill (S. lugdunensis; S. lugdunensis, fetal calf serum): 0.50 µg/mL | Reduction in CFU of SCV strains [1]: more than 4 log | CFU/mL, P128 treated ([1]; S. aureus USA 300 (wild type), 1 h): 4.5 × 10^2 CFU/mL | CFU/mL, P128 treated ([1]; hemB small colony mutant NR48387, 1 h): 3.0 × 10^1 CFU/mL | CFU/mL, P128 treated ([1]; menD mutant small colony mutant, 1 h): 1.2 × 10^3 CFU/mL | Lawn inhibition [2]: susceptible | Effect on biofilm by SEM (S. aureus BK1 biofilms): destroyed the biofilm structure and lysed the bacterial cells completely
